Source: patent US20030120038A1 (MERCK, published 2003)

Key:
[1] = target: T1, sVEGF-RI, natural soluble form of the FLT VEGF receptor, expressed by baculovirus in Sf9 insect cells (human, UniProt P17948 27-656); test: 96 well plate competition, immobilized sFLT, tracer [125I]PlGF, competitor unlabeled VEGF
T1 construct: also called sFLT; sFlt
Protocol: (§1) Briefly, sVEGF-RI, 50 to […] partially purified by Mono Q chromatography (Pharmacia), was diluted to 10 ml in 25 mM TRIS, pH 7.4, 100 mM NaCl, 20 mM NH₄HCO_{3.} Aliquots ([…]) were absorbed to the surface of a 96 well plate for 18 hours at 4° C., the plates were then washed twice with blocking buffer (DME, 25 mM HEPES, pH 7.5, 0.5% gelatin) and the nonspecific sites were blocked in the same buffer for 6 hours at 4° C. The plate was then washed twice in binding buffer. […] The wells were washed three times with […] of binding buffer, the bound protein was solubilized with […] of 1% SDS, 0.5% BSA and counted in a g counter. The results, shown in FIG. 7, were analyzed by the method of Scatchard [Scatchard, G., (1949) Ann. N.Y. Acad. Sci., 51, pp. 660-672].

[2] = target: T1, sVEGF-RI, natural soluble form of the …; test: 96 well plate assay, sVEGF-RI absorbed to the plate, various amounts of [125I]VEGF, Scatchard analysis
Protocol: as §1

[3] = target: T2, Ex-KDR, purified extracellular domain of the KDR VEGF receptor (UniProt P35968 20-764, limits assumed); test: covalent crosslinking (BS3) of purified Ex-KDR with [125I]PlGF, SDS/PAGE
T2 construct: extracellular domain; It may be the same construct; also called extracellular region of KDR
T2 sequence (P35968 20-764 limits assumed): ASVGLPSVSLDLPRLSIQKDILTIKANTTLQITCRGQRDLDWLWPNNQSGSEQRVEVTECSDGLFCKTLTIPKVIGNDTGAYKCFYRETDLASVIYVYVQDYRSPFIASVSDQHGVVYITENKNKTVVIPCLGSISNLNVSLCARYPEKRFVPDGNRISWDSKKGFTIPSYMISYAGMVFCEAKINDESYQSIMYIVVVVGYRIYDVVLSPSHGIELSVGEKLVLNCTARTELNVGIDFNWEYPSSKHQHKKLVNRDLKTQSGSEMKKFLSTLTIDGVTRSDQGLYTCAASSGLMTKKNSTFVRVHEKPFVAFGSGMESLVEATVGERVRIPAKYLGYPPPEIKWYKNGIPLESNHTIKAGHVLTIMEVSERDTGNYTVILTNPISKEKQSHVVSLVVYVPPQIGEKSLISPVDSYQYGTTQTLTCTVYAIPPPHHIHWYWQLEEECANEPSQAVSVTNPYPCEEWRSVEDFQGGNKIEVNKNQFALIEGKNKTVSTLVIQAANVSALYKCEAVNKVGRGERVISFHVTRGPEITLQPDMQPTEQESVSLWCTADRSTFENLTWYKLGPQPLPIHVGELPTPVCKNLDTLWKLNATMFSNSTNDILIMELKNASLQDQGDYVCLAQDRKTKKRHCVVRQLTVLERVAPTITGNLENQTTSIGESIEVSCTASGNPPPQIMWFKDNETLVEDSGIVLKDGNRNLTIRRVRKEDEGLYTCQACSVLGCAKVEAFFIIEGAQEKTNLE
Protocol: The reactions were then crosslinked with 1 mM BS³ at 25° C. for 15 min followed by the addition of boiling Laemmli sample buffer (10). The crosslinked products were analyzed by SDS/7.5% PAGE and the complexes were visualized using a Phosphohnager (Molecular Dynamics, Sunnyvale, Calif.).
The reactions were then crosslinked with 1 mM BS³ at 25° C. for 15 min followed by the addition of boiling Laemmli sample buffer. The crosslinked products were analyzed by SDS/7.5% PAGE and the complexes were visualized using a Phosphohnager (Molecular Dynamics, Sunnyvale, Calif.).

[4] = target: T1, sVEGF-RI, natural soluble form of the …; test: 96 well plate competition, immobilized sFLT, tracer [125I]PlGF, competitor unlabeled PlGF
Protocol: as §1

[5] = target: T1, sVEGF-RI, natural soluble form of the …; test: 96 well plate competition, immobilized sFLT; reference is PlGF displacing [125I]PlGF
Protocol: as §1

[6] = target: T1, sVEGF-RI, natural soluble form of the …; test: 96 well plate competition, immobilized sFLT, tracer [125I]VEGF, competitor unlabeled PlGF
Protocol: as §1

T1 sequence (P17948 other isoform, or with tags, fused parts or gaps): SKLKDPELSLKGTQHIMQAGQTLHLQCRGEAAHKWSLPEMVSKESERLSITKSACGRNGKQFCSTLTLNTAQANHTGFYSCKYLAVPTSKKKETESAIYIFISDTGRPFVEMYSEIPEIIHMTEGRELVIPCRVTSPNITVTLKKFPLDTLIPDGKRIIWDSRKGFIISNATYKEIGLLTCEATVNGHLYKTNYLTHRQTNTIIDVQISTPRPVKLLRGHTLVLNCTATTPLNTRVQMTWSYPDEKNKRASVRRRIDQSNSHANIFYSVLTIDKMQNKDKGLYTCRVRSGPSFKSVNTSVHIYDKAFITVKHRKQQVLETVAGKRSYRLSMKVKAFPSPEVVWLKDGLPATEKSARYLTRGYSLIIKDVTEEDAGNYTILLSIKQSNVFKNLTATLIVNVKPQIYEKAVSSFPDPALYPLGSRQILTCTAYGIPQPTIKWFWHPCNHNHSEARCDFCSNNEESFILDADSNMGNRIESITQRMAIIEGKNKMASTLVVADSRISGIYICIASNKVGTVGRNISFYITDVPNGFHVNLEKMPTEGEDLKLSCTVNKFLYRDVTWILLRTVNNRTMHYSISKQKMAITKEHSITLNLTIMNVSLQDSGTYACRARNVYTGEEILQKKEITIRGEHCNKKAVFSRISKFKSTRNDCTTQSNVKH

| Binder | IC50 [1] [pM] | Kd [2] [pM] | binding result [3] | IC50 [4] [pM] | fold higher concentration to displace 50% of [125I]VEGF than of [125I]PlGF [5] [fold] | IC50 [6] [pM] |
| --- | --- | --- | --- | --- | --- | --- |
| human recombinant vascular endothelial cell growth factor (VEGF) (ligand, UniProt P15692-4 27-191, looked up, 125I label (chloramine T method) in the tracer form, also called unlabeled VEGF) APMAEGGGQNHHEVVKFMDVYQRSYCHPIETLVDIFQEYPDEIEYIFKPSCVPLMRCGGCCNDEGLECVPTEESNITMQIMRIKPHQGQHIGEMSFLQHNKCECRPKKDRARQENPCGPCSERRKHLFVQDPQTCKCSCKNTDSRCKARQLELNERTCRCDKPRR | 10 | ~20 |  |  |  |  |
| recombinant human PlGF (ligand, UniProt P49763-2 19-149, looked up, 125I label (chloramine T method) in the tracer form, also called PIGF) LPAVPPQQWALSAGNGSSEVEVVPFQEVWGRSYCRALERLVDVVSEYPSEVEHMFSPSCVSLLRCTGCCGDENLHCVPVETANVTMQLLKIRSGDRPSYVELTFSQHVRCECRPLREKMKPERCGDAVPRR |  |  | no binding | ~110 | ~5 | ~550 |
